Key:
[1] = CGA esterase kinetics in sunflower meal; assay type: biochemical
Method: Chlorogenic acid esterase kinetics in sunflower meal. To determine the Michaelis-Menten parameters of CGA esterase in undefatted SFM, SFM suspensions were made at following concentrations: 1.0 mg mL^−1, 2.5 mg mL^−1, 10.0 mg mL^−1, 30.0 mg mL^−1, and 100.0 mg mL^−1. All samples were made to a final volume of 10 mL in a solution containing 50 mM HEPES, pH 8.0. Treated samples contained a final enzyme concentration of 10 nM. Reactions were stopped by acidifying the solution by adding 120 μL of 37% HCl at regular intervals for 600 s. Samples were subsequently centrifuged at 10,000 rpm for 10 min. […] The supernatant was then filtered using a 0.2 μm filter and loaded onto an HPLC, as described above. The initial amount of CGA that was present prior to adding enzyme was measured using HPLC.
(§1) HPLC quantification of CGA and CA in sunflower meal and protein isolates. All solutions were diluted ten-fold in 0.1% formic acid in HPLC-grade water before analysis. Quantification of CGA and CA concentration was performed using an Agilent 1260 series HPLC instrument (Agilent Technologies) equipped with a quaternary pump, an automated sample injector, a diode array detector, and a 4.6 mm×150 mm Luna C18(2) column with a 5 μm particle size and 100 Å pore size (Phenomenex). The injection volume was 20 μL. To elute analytes, mobile phases composed of 0.1% formic acid in HPLC-grade water (A) and 0.1% formic acid in HPLC-grade acetonitrile (B) were used in a linear gradient. The gradient is as follows: 0 to 13% B in 1 min, up to 27% B at 8 min, up to 100% B at 8.5 min, isocratic at 100% B to 9.5 min, 100% B returned to 0% B at 9.6 min with 3 min post-time. The concentrations of CGA and CA were calculated from peak integration data based on 10-point standard curve that spanned a concentration range of 0 to 0.1 mg mL^−1.

[2] = Circular dichroism thermal and pH stability; assay type: physicochemical
Method: Circular dichroism, dynamic light scattering and mass spectrometry. Circular dichroism (CD) spectra were taken on a Jasco J-1500 CD spectrophotometer. CGA esterase (0.2 mg mL^−1) was buffered in a solution of approximately 5 mM HEPES, pH 8.0. Spectra were recorded at 4° C. using the following settings: 100 nm min^−1 scan rate, 0.2 nm data pitch, 1.0 nm bandwidth, and 2 s integration time. Five acquisitions were averaged per experimental sample. […] The Tm was estimated by fitting a Boltzmann sigmoidal function to the denaturation curve. For CD spectra that were run at different pH, a concentrated CGA esterase stock solution was diluted to either 0.2 mg mL^−1 or 0.1 mg mL^−1 into solutions of 10 mM buffer at the pH indicated.

[3] = CGA and CA content of sunflower protein isolates (HPLC); assay type: biochemical; settings: enzyme present
Source text: Sunflower meal and sunflower protein treatment with chlorogenic acid esterase. Sunflower seeds were ground using a KitchenAid coffee grinder in two 30 s increments and sieved through a 500 μm filter to make SFM. Two defatting methods were used: cold press and hexane extraction. To make cold pressed SFM, ground seeds were pressed in a Carver Hydraulic Unit Model 3912 3852-0 five times to a pressure of 9,000-10,000 psi. For hexane extracted SFM, fat was removed from ground seeds using a Soxhlet apparatus in 250 mL hexane for 18 h and subsequently dried using a Fischer Scientific Isotemp Oven Model 516G at 45° C. for 3 h. Cold pressed, hexane extracted, and undefatted SFM were then sieved through a 500 μm filter.
To make SPI, 12.5 g of cold pressed, hexane extracted, and undefatted SFM were buffered in 50 mM HEPES at pH 8.0. Samples were continuously stirred for about 10 min until all SFM was completely suspended. Then, 0.2 mg of CGA esterase per g of SFM was added. The final volume for all reactions was 125 mL. In untreated samples, a buffered solution of 50 mM HEPES, pH 8.0 was added instead of the enzyme solution. After 10 min, 0.1 M NaOH was added to each solution until pH reached 9.00±0.03. Samples were left to sit for 30 min and then centrifuged at 5,000 rpm for 20 min at 4° C. The supernatant was placed back into a 250 mL beaker and pH was lowered using 0.1 M HCl to reach an isoelectric pH of 5.00±0.03. Samples were allowed to precipitate at 4° C. overnight (14-16 h). The supernatant was discarded, and the precipitate was lyophilized for 20 h. All experiments (controls and CGA esterase treated samples) were duplicated.
as §1

[4] = SFM supernatant, pH 8.0, 20° C.

B1: CGA esterase: CGA esterase from L. helveticus (Genbank ID: WP_025283955.1, Uniprot ID: U6F2K7), expressed in Escherichia coli; the dimer is the active form (protein, listed as Lactobacillus helveticus)
chain: MSRITIERDGLTLVGDREEPFGEIYDMAIIMHGFAANRNTDLLRQIADDLRDENVASVRFDFNGHGESDGKFEDMTVCNEIADGKAILDYVRTDPHVRDIFLVGHSQGGVVASMLAGLYPDVVKKVVLLAPAAQLKDDALRSNTQGATYDPNHIPDWPLVGNKLGMKLGGFYLRTAQVLPIYEVSQCFTRPVSVIAGTNDQWDPKYAKKYDEVYENSELHMIPNADHRFSGGYKDMAADLTAQFLKPAF
In the case of B1, the “Km in SFM lower than in buffered solution” value [1] is reported as 4.5 fold, the “Meal concentration at which maximal CGA hydrolysis activity is achieved” value [1] is reported as “approximately 100 mg mL^−1” and the “Vmax in SFM lower than in buffered solution” value [1] is reported as 60 fold. For the same molecule, the Km [1, 4] was 20 µM, the Vmax [1, 4] was 2.716 mM/min/mg and the Tm ([2]; CD signal at 222 nm, thermal denaturation) was 65 °C. The “pH range over which the protein is stable (CD spectra)” value ([2]; room temperature (21° C.)) was 6.0-9.0 pH, the “mg CA/g protein” value ([3]; SPI from cold pressed SFM) was 3.62 ± 0.05 mg CA/g protein and the “mg CGA/g protein” value ([3]; SPI from cold pressed SFM) was 0.00 ± 0.00 mg CGA/g protein. The “mg CA/g protein” value ([3]; SPI from hexane extracted SFM) was 3.38 ± 0.25 mg CA/g protein, the “mg CGA/g protein” value ([3]; SPI from hexane extracted SFM) was 0.00 ± 0.00 mg CGA/g protein and the “mg CA/g protein” value ([3]; SPI from undefatted SFM) was 1.11 ± 0.38 mg CA/g protein. For the same molecule, the “mg CGA/g protein” value ([3]; SPI from undefatted SFM) was 0.00 ± 0.00 mg CGA/g protein.

Reference: US12630850B2, “Enzymatic break down of chlorogenic acid in sunflower-containing products” (Chapman University, priority 2022, dated 2026)
